In experiment [1] the target is 70392_201[TL1A]H1L1. Nature of the experiment: SPR; monovalent Fab.
Experiment [2] has as its target Comparator 2. Put plainly: SPR; monovalent Fab.
The target in experiment [3] is 70417_111[TL1A]H1L1. Nature of the experiment: SPR; monovalent Fab. Background: In SPR one partner is held on a chip, and binding of the other changes the refractive index at the surface.
In experiment [4] the target is 70392_189[TL1A]H1L1. Nature of the experiment: SPR; monovalent Fab.
The target in experiment [5] is 70416_073[TL1A]H1L1. Nature of the experiment: SPR; monovalent Fab.
Experiment [6] addresses 70392_069[TL1A]H1L1. Put plainly: SPR; monovalent Fab.
Experiment [7] deals with 70416_092[TL1A]H1L1. Put plainly: SPR; monovalent Fab.
Experiment [8] concerns the target 70392_074[TL1A]H1L1. Put plainly: SPR; monovalent Fab.
Experiment [9] addresses T1, human scTL1A (human, UniProt O95150 72-251, biotinylated (captured with the Biotin CAPture kit); site not stated).
T1 chain: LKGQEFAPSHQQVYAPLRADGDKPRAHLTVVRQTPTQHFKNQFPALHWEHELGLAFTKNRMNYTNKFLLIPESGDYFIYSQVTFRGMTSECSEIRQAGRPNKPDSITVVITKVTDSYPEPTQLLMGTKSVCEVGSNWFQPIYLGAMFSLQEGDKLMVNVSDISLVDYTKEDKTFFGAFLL
Nature of the experiment: SPR; monovalent Fab.

In experiment [10] the target is T2, recombinant TL1A (UniProt O95150 72-251).
T2 chain: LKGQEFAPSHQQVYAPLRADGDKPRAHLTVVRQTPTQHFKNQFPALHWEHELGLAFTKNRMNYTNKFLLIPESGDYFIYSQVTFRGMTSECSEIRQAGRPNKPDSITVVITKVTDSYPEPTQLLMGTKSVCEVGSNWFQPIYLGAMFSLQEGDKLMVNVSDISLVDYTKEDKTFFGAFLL
Nature of the experiment: SPR; run in different experiment under similar conditions.

B1: scTL1A (ligand)
chain: LKGQEFAPSHQQVYAPLRADGDKPRAHLTVVRQTPTQHFKNQFPALHWEHELGLAFTKNRMNYTNKFLLIPESGDYFIYSQVTFRGMTSECSEIRQAGRPNKPDSITVVITKVTDSYPEPTQLLMGTKSVCEVGSNWFQPIYLGAMFSLQEGDKLMVNVSDISLVDYTKEDKTFFGAFLL
modifications: biotinylated (captured with the Biotin CAPture kit); site not stated
As to B1, the Kd is 0.128 nM in experiment [1]; 0.0708 nM in [2]; 6.84 nM in experiment [3]; 0.895 nM in experiment [4]; 6.61 nM in experiment [5]; 1.69 nM in [6]. The Kd was found to be 3.12 nM in [7] and 6.11 nM in experiment [8].

B2: 70416_041[TL1A]H1L1 Fab (Fab, V domains shown)
VH: QVQLVQSGAEVKKPGASVKVSCKVSGFSVTSYNVHWVRQAPGQGLEWMGVMWSGGNTDYNSKFQGRVTMTRDTSTNTVYMELSSLRSEDTAVYYCARAGRYYHDSNYYWDFPYWGQGTLVTVSS
VL: DIQMTQSPSSVSASVGDRVTITCRASEDIYSGLAWYQQKPGKSPKLLIYGASSLQDGVPSRFSGSGSGTDYTLTISSLQPEDFATYFCQEGLKSPYTFGAGTKLEIK
Turning to B2, the Kd in [9] and in [10] was 0.104 nM each time.

The Kd is the free concentration of one partner at which half of the binding sites on the other are occupied at equilibrium, for simple one-to-one binding.

The values are drawn from US20250361311A1 (published 2025).
